Tested on: Cabin 1-14
Sequence (chain, as listed by the source): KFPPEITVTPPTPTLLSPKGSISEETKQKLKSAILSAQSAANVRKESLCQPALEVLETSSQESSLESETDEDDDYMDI

Substance: calcineurin (endogenous, Jurkat T cells)
- dephosphorylation of ΔNF-AT1 (Western blot gel shift) upon ionomycin with or without PMA: Overexpression of Cabin 1-14 inhibited the dephosphorylation of ΔNF-AT 1 upon treatment with ionomycin in the presence or absence of PMA
